Assay results: the DeepSol protein solubility set

Test: soluble on expression in E. coli; label from the status in PepcDB or PDB records

| Sequence | soluble on expression in E. coli |
| --- | --- |
| MGGDSVAIFTADMSVSGELRNDIELHLRRGIESDALRLVYLPEVDLRTGDIVGTEALVRWQHPTRGLLAPGCFIPVAESINLAGELDRWVLRRACNEFSEWQSAGLGHDALLRINVSAGQLVTGGFVDFVADTIGQHGLDASSVCLEITENVVVQDLHTARATLARLKEVGVHIAIDDFGTGYSAISLLQTLPIDTLKIDKTFVRQLGTNTSDLVIVRGIMTLAEGFQLDVVAEGVETEAAARILLDQRCYRAQGFLFSRPVPGEAMRHMLSARRLPPTCILEHHHHHH | not soluble |
| MNYGFVKVAAAVPRVKVADCKFNSERLEGLITIAEGKGVQILTFPEMCITGYTCGDLFAQQLLLEQAEMALIQILNSTRQLDIISILGMPVVVNSTVINAAVVIQKGKILGVVPKTYLPNYKEFYEQRWFTSALQVSENSVRLCGQIVPMGNNLLFETAETTFGIEICEDLWATVPPSSSLALQGAEIIFNLSADDEGIGKHNYLCSLISQQSARCISGYVFSSSGFGESTTDVVFAGNGLIYENGYLLARSERFCMEEQLIINEIDVECIRAERRVNTTFAANKANCPGLEHHHHHH | not soluble |
| AIAKILLVFDFDNTIIDDNSDTWIVQCAPNKKLPIELRDSYRKGFWTEFMGRVFKYLGDKGVREHEMKRAVTSLPFTPGMVELFNFIRKNKDKFDCIIISDSNSVFIDWVLEAASFHDIFDKVFTNPAAFNSNGHLTVENYHTHSCNRCPKNLCKKVVLIEFVDKQLQQGVNYTQIVYIGDGGNDVCPVTFLKNDDVAMPRKGYTLQKTLSRMSQNLEPMEYSVVVWSSGVDIISHLQFLIKD | soluble |
| MGSDKIHHHHHHMKIYIMKQQMRQAKRVNYLDEHLNCLFYNGNPEIGFRHLTLQKGKTWCELSAKNNYFFFLLEGALIVDFNECVGYEVGKGEMIYLPRSADFKIFAKESADLIILSYGIPVQLCDKLSLSQLGAFITDFKYEFKSLDIRVPLDTFLKLLVKYLDSGMSCQHMHELKQKELFLILRAYYTKEEKVNFFYHSIAASLTFKDKVMGVYLEARTVQELADKCGYGLKTFQRLFYSCFSEVPSKWLMKQKAQHVKARLLDRDIPIKVILDEFGFSTYANFCNYCKRYVGDTPRNIRESVTLGFRK | not soluble |
| MSLSSDMEGGMITMKANDTTKYLIHAEIEAEGVVERPDVVGAIFGQTEGLLGGDLDLRELQKTGRIGRIEVKIESKGGRSFGEIKVPSSLDKVETAILAAALETIERVGPCSAKIKVLKIEDVRASKRKRIVERAMNILREHFEEPEIESERIVEIVRQAIRADEIVEYGEEKLPAGPAIDESDAIIVVEGRADVLNLLKHGIKNVIAVEGTNIPKTIVELSKKKTVTAFLDGDRGGDLILKELLQVAEVDYVARAPEGKEVEDLTQKEILKSLRNKVPVEQLHVLKKEAKEGREREKLAEMPKDSISDVLRKHTESVKGRLTARVLDRNLNVIKEVPVRDLVKILKTNNMKGSAIVFDGIITQRLIDLAAKKEFDYIVGVRLGSVVKVPTSLRVITFDQLEGHHHHHH | not soluble |
| MEQSQRTQLSYEGAKSVIRFMSIEKRIQIHCRIPYYRKTNALFPYAHRQMTLSSDGISIGSNHYTFDIRRSNFGRRFRDDFGGESDEEPEAAPLEPALAELNLRDRARREREILREEHYQREDDERLRAQQNQVHIRYGETQYEVRRNFGQRRNPEEAFIKLFDAYISTGTTIEKLLFTGFPKFLKKRDPSKLQFKVRELKLSSLRDRTLEKIVPFIGASKLKKMNLDVGPDTISYLDLPMIKNCEVLNLNISMWNERNRQRNENNNFSKLSNLRNMKLNLILERFTIDDLQRLALNWIFTRRPIGTYFKTGVNQQYDHILDIFDRLIEENRASRCRITKLGTVYFANGVKLSIDGKSELVVYGGPKWKTRAGIDGQWTIHMEVMAVGDTTPSA | not soluble |
| MIMVNNDAVVRNVYHKYFHPKEALVSSGVLNREISRAAGKAVPGIIDEESSGNNAQ | soluble |
| MEMSLEEFKTMFKTVMKKEFEDELHRITEPGKSKMAIERYIQGINLLDKKCILDNDENHNVLFKFAPIDQDFAHSSTNLSTPSPLEEESARENNHEAQELDITERIARMNLIGGSEFQMQYSSFLTAVSTKPSTDASLKKEARRLAEIWWAKNLRFFPQTMYVLQKLDQKNPDGFNYTDFEEEVQKVIPRSWIQNHHSFTLLSLLNEESLYVKFNLIMPSDSENMNRVKVNQVIKFLGFHEIGDCEFSMIYQYVSSKSASESTYSIHKFMCEDFPGWETQYNNEKKSMDRIFEIIIQEQKLFWTEYDYHTYKRHAYKIAVPMVFSLNIVDKAVGVRSDAR | not soluble |
| MGSDKIHHHHHHMKKYVIVTGGVLSGIGKGIFSASLARLMKEHGVDVNVLKIDPYLNVDAGTMNPNQHGEVFVTEDGYEADLDLGHYERFLGRDMTRQNNMTAGQVYLRVIEKERQGKYLGNTVQIVPHLTEEIKDRIRALEAELLVVEIGGTVGDIEGEVFLEAVRELQMEEGKENFLFAHVTYVPYLRTTNEFKTKPTQQSVQLLRRIGITPDMVIVRSEFPLDVPSMNKVALFSGVPRDFVINLPDTKNVYEVPEILRDMGLHEKIASKLNVELKKSTFNWSYPKAFKPYRIALVGKYLGTDDAYKSIIESVFLTGIEKPTVVDSQMLEDMNDEEVKKVLDEYDALIIPGGFGRRGVEGKIKAIKYARENKKPILGICLGMQLMVIEFARNVFGYKEANSTEFDPNTPYPVVDLMEEQKRILKLGGTMRLGAQKVKIFPKTKLYEVYGGVEEVYERHRHRYEANEEAFPELFKKPGEEGYKLVVSAKSDFIEAVELEDHPFFVGVQFHPEYKSKVGAPHPIFVYLRKVLEGSQ | not soluble |
| MKITLIIPTYNAGSIWPNVLDAIKQQTIYPDKLIVIDSGSKDETVLLASDLKNISIFNIDSKDFNHGGTRNLAVTKTLDADVIIFLTQDAILADSDAIKNLVYYFSDPLIAAVCGRQLPHKDANPLAVHARNFNYSSKSIVKSKADIEKFGIKTVFMSNSFAAYRRSVFEELSGFPEHTILAEDMFMAAKMIQAGYKVAYCAEAVVRHSHNYTPREEFQRYFDTGVFHACSPWIQRDLGGAGGEGFRFVKSEIQFLLKNAPFWIPRALLTTFAKFLGYKLGKHWQSLPLSTCRYFSMYKSYWNNIQYSSSKEIKLEHHHHHH | not soluble |
| AHPLENAWTFWFDNPQGKSRQVAWGSTIHPIHTFSTVEDFWGLYNNIHNPSKLNVGADFHCFKNKIEPKWEDPICANGGKWTISCGRGKSDTFWLHTLLAMIGEQFDFGDEICGAVVSVRQKQERVAIWTKNAANEAAQISIGKQWKEFLDYKDSIGFIVHEDAKRSDKGPKNRYTV | soluble |
| GPYGAPAGPLIVPYNLPLPGGVVPRMLITILGTVKPNANRIALDFQRGNDVAFHFNPRFNENNRRVIVCNTKLDNNWGREERQSVFPFESGKPFKIQVLVEPDHFKVAVNDAHLLQYNHRVKKLNEISKLGISGDIDLTSASYTMI | soluble |
| MGSDKIHHHHHHMLLFQDLRKDIYEIVSKRFRISENDVYLDDTGHSDITIRVFRILKSPDGGENAVMEIVRSISEKDYVEKALSEGGYINVWIKRTYMLREVLESIEKSGTYPDVFQEAERVSVEHTSANPTGPLHIGRARNSIIGDSIYRILSRYGYRTVRQYFVNDSGKQMISLYTAYIKYGGPITIENLLENYQKIYREMEKDQSIEKEIEKNIERYENADPEVFGTLRKIAGVMLDGIASTLKRIGIEFDEFDWESDLLLNGSVRKAIDMLETKEEDSARYIEISGKKVFLTRKDGTTLYFARDIAYHLFKAENSEWIIDVLGEDHKDHAKSLNHVLKEMLKLENRVSFMYYSFITLETGKMSTRRGNIVTLQDLVDRTYDEALKIVNEKRPDLSEEERKKIAEVIASSAVRYSIIRVSAPKPITFRWEEALNFESNSAPFIMYSHARAASILDKAPEPEQSYGMDMPKEEADLVKAMYVYPYYLKDAAQDLKPDLIAAYLISLVQKFNDFYGACRVIGTDPLTYARRIRIVKAYKQILSDAGDLIGIKMLDQM | not soluble |
| GSCSSKPANTAKGEKGSDKTGKDLELKLSFQEGIAPGESLNEKLDFMEKLGVVGFEPGGGGLAGRVNEIKQALNGRNIKVSAICAGFKGFILSTDPAIRKECMDTMKEIIAAAGELGSTGVIIVPAFNGQVPALPHTMETRDFLCEQFNEMGTFAAQHGTSVIFEPLNRKECFYLRQVADAASLCRDINNPGVRCMGDFWHMTWEETSDMGAFISGGEYLQHVHVASRKRRSMPGEDGDADNYINGFKGLKMIGYNNYVSFECGCQGDRNVVVPAAVKLLREQWEQA | soluble |
| MEEVVRFECRDSNLEIYVVQPGERLSIFGSCSFLCLAGNASINDYNLPAVSCESSNFMKISAPQRMDVPAILQVFKSGPSYKHARLKFRLKEVAPKNYEKIMEMIGTTEPSVFIFSKILDFAEETVSGVVSNFLIHSSIQKQIILPPHFFISRDDFIIYPQQQEAQLKSQMNRLNKLRNDGQRTTILPIGHKGAGKSNLMRSLVNRCLSNGYEHVYVLDCDIGQSEFTPCGCLSLTKVTSPILGKPHGHQRASFENSFFYGDITVRDINLYMDIFERLFNKFKVISEPGSVCIINSMGWVTDEGAEILDGITRVTDPELFVEIFRDQTEARYQFLNRAEHNIVEIFANNSIGVIGLPPQKRLPAALIRELTIVGYFSSRLPRPSLASFPKVAPYKLRFENVTICVPVDLLVEDSHVFSSINTQIMALCINNTDLKPRKLYGKDDLPSICVIDGNSPALQCIGFGIIRGVSVEERIIFVVTPVDLLKLEEPPVLVRGMRIQTPTMFYTADPYNRCPYVLNDLEQGNSDNTLDGLYQPSVNTTQFKRSRRF | not soluble |
| SSCTIEKILTDAKTLLERLREHDAAAESLVDQSAALHRRVAAMREAGTALPDQYQEDASDMKDMSKYKPHILLSQENTQIRDLQQENRELWISLEEHQDALELIMSKYRKQMLQLMVAKKAVDAEPVLKAHQSHSAEIESQIDRICEMGEVMRKAVQVDDDQFCKIQEKLAQLELENKELRELLSISSESLQARKENSMDTASQAIK | soluble |
| SSRAKRIMKEIQAVKDDPAAHITLEFVSESDIHHLKGTFLGPPGTPYEGGKFVVDIEVPMEYPFKPPKMQFDTKVYHPNISSVTGAICLDILRNAWSPVITLKSALISLQALLQSPEPNDPQDAEVAQHYLRDRESFNKTAALWTRLYASETSNGQKGNVEESDLYGIDHDLIDEFESQGFEKDKIVEVLRRLGVKSLDPNDNNTANRIIEELLK | soluble |
| MSLQTPMQTVDDLRSVCDELPHSLETFPFDDETLVFKVGYLSKSRMYALTDITQDPLRLSLKVDPERGEELRQAHPQSIAPGYHLNKKHWVTVTLDGTVPAELLGELLRGSYLLVTKKGFTKAERKELGLPDSLEGGSHHHHHH | soluble |
| MNYIESLISSVDSQIDTLNKAMIEVQSTIDLLSNGDLASSPEKLISIGSGLFAKGNITIDEDLIVPIGSGIYVAETKERSVERLKKNLEDIKASIQKLLDQRKTLVDQYNTVYATEATRNVK | not soluble |
| MGSDKIHHHHHHMPYKTLKTIDYEAHHDSKTVGTEYERRIHNYGIFKSGLYPFLIDHQELSQDRRELFITPLREIAIACERIEYNSAELKSKLKELPPIAEELYLKKSLINEITTSNRLSGIAVRRTEVKAALDSINKDNQEQVRFAPMAKMYNKILEDDFQRIESFVDLRKVYNQLLFGLIEKEQMPDGAFFRNRPVSIKNDQQKIIFQLPGNENDLEQRLSNWLKFISNKNIPFMIKGLLAHGYFENIHPFYDGNGRTSRYILSLYLARKLDLVTGLNVAQAIYENRESYEKALLALGDQGNFAEGSFFINDSLSMIENRQRKIIEDLDVNIKQLSRTNKKIQQIYQINSPEYFVLNLLLQSKIFTDNQADGLLDREIVEISENSKHSKRAINLAIKSLEQKKQITTLKKNPFQHSIDIN | not soluble |
